According to patent publication US20260217845A1 (ODYSSEY THERAPEUTICS, published 2026):

B1: ODY-33D4 (VHH)
VHH: EVQLVESGGGLVQAGGSLRLSCAASGRTFSDYGMGWFRQAPGKDSEFVAAINWSNGRTNYADSVKGRFTISRDNAKNTGYLEMNSLKVEDTAVYYCAATPSGKAYSYWGQGTQVTVSS
B2: ODY-31G3 (VHH)
VHH: EVQLVESGGGLVQAGGSLRVSCAASGSIFRADAMGWHRQVPGKPREFVAGIRSDGFTNYAEAVKGRFTISWDTVKNTVYLQMNSLKPEDTAVYTCYYQSLSSPNYGQVFWGQGTQVTVSS
B3: ODY-35A10 (VHH)
VHH: EVQLVESGGGLVEAGGSLRLSCAASGRTFGSYTMGWFRQAPGREQEFLASIRRTGGSTSYADSVKGRFTISRDNAKKAVYLQMNSLKPEDTAVYYCAAAPTGRAFTYWGQGTQVTVSS
B4: ODY-31D6 (VHH)
VHH: EVQLVESGGGLVQAGGSLRLSCAASGSIVSTNGMGWHRQVPGKGRELVAGIRSDGFTNYADSVKGRFTISSDNVKNTVYLQMNSLKAEDSGVYFCYYQALSSPNYGQTFWGQGTQVTVSS
B5: ODY-37C7 (VHH)
VHH: EVQLVESGGGLVQPGGSLRLSCAASGFTFDDIAMTWVRQAPGKGLEWVSSIYSYGPNTYYADSVKGRFTISTDSAKNTLYLQMNSLKPEDTAVYYCAADSDLSTVVVGPHDYWGQGTQVTVSS

Key:
[1] = biological target: T1, mouse TNFR2 (extracellular domain) (mouse, UniProt P25119 23-258); assay: SPR (Carterra LSA), V-body coupled to HC200M chip, TNFR2 extracellular domain in solution
T1 construct: also called mTNFR2
T1 sequence: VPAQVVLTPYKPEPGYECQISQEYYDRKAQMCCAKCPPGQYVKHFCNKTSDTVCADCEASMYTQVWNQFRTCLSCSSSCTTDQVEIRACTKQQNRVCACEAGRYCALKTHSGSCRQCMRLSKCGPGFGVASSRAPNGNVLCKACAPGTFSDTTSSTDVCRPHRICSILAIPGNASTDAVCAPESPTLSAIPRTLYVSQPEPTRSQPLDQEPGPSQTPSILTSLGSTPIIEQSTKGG
Experimental: (§1) Binding affinities of the V-bodies to their respective target was determined by surface plasmon resonance (SPR) using a Caterra LSA instrument. Affinity purified V-bodies were covalently crosslinked onto an LSA HC200M chip using EDC/Sulfo NHS. The interaction with human, cynomolgus, and mouse TNFR2 (extracellular domain) (V-body coupling concentration: human, […]; cynomolgus/mouse, 4 μM) was measured under physiological conditions (Running Buffer: HBST-50 mM HEPES pH 7.4, 150 mM NaCl, 0.1% (w/v) BSA, 0.05% (v/v) Tween20, 25° C.) using eight different antigen concentrations (3-fold serial dilutions, start at 200 nM). Resulting sensorgrams (FIGS. 9A-9F) were analyzed and equilibrium-binding affinities (KDs) were calculated using Carterra's data analysis software.

[2] = biological target: T2, human TNFR2 (extracellular domain) (human, UniProt P20333 23-257); assay: SPR (Carterra LSA), V-body coupled to HC200M chip, TNFR2 extracellular domain in solution, 8 concentrations from 200 nM
T2 construct: also called hTNFR2; human tumor necrosis factor receptor 2
T2 sequence: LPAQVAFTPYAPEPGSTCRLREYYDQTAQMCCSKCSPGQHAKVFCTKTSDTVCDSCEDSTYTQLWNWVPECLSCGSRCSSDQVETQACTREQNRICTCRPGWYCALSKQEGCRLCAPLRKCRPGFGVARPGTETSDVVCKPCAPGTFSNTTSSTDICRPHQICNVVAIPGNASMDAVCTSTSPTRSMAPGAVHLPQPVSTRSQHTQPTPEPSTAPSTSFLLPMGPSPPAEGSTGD
Experimental: as §1

| Binder | binding result [1] | binding result [2] |
| --- | --- | --- |
| B1 | no binding (tested: 200 nM (highest antigen concentration)) | binds |
| B2 | no binding (tested: 200 nM (highest antigen concentration)) | binds |
| B3 | no binding (tested: 200 nM (highest antigen concentration)) | binds |
| B4 | no binding (tested: 200 nM (highest antigen concentration)) | binds |
| B5 | no binding (tested: 200 nM (highest antigen concentration)) | binds |
